Test results: the supplement of paper PMC11502859
Several values for one entry are separate records, joined by “and”; a condition that tells them apart may be missing. Identical values can stand only once.

System: HEK293T
Test: median enrichment of reporter reads in eGFP-reduced (low/intermediate) vs eGFP-high sorted cells (eGFP-extension fusion abundance) (ratio); higher = stronger loss of eGFP-fusion protein abundance (more destabilising extension)
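Further: lentiviral eGFP-IRES-mCherry reporter pool sorted by FACS 96 h post-transduction, gated on mCherry-high cells, Illumina read counts normalized per million, median across four biological replicates.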

Row | Substance | median enrichment
1 | SDFYLNRETYARTVWTNSRPRHGARRPAGLPPLDGRGKDGRELHCESAARAAGGWDWSSLYCR [DOT1L] | 6.88
2 | LIGCMEK [BTN3A1] | 11.1
3 | LATATALPVRQAPKGGGGMAQEEGCEEEEGEMAVASGSALQL [FAM228A] | 0.27
4 | HFWGVTDFVHGFKVYFYGLVIAEFLFWGEGKGASPLLLALRPRRLLCAANCIYCDALVRAPLPTSPSQLWPQPLSLCCVEWTP [TSPYL2] | 8.4
5 | PWTWYTSMWSCWARGVLCAVNSVGSCSGVGARFLPPWAEGPFPLVLCPHPPPFSCSWASALPRASQVLLGREGNGEKGEASSV [KLHDC3] | 6.21
6 | KIMRHTV [TBC1D32] | 6.86
7 | QCLCRIKCLLFYMHILKEKQRPEPRRG [RIOX2] | 4.27
8 | RDALAMAQEKPARKNQTDFHTKEEASIFFFLFFIGVVTKPFRLLLFKI [QRICH1] | 33
9 | WPSSLPPKPTTQC [KPNA7] | 0.282
10 | SRMGLSL [APOBEC3G] | 0.634
11 | VVVVV [Val05] | 10.3
12 | EKTVCKRSGVQEITSFDRSMYRKFKFCLRLHKLGAFLRCFSCSNLFVS [SRSF3] | 10
13 | YATRRCPRPSRRRGSLAGAAPPCVRPAGAHVF [HHIPL1] | 11.3
14 | WLTAALAHSARGQDGGYLRPVLSCLFVFLIRDHVGLLRTRKAGKFPAGPSA [MKS1] | 10.7
15 | RSAAIRWKPLEPEAAA [FXYD6] | 12
16 | QQQQQQQQQ [Gln09] | 0.104
17 | KMF [EFCAB2] | 0.649
18 | RLLTHRHNLGH [MMP19] | 8.57
19 | ESVAFLLFPH [NKAIN2] | 6.56
20 | VVV [Val03] | 0.518
21 | LSRL [ESM1] | 10.3
22 | WILAELLCT [COPS4] | 5.2
23 | RAS [ABCF2] | 0.408
24 | LTFSGNRADDYNIFFLMLTFLKIHIWDSYYQGSTYVNLQFMFQDICQMYYRCL [SUV39H2] | 10.1

Row | Substance | median enrichment
25 | KRGTGGRGRGVLHEMLMLSVISGESV [FAM98C] | 7.54
26 | STFLHTQPLLYSTSCPGASHTPELICIILTIFSLLSPFFLFERPSLISKM [TRIM5] | 16.6
27 | RQEGPSGRDGPGGGQMGRCGRHVIDSTEGLSCVPPTLPWTDSEGPPGTSAKAG [KCNF1] | 5.07
28 | QALGKKDCNQRKSIGVEEIKLTLFWLFF [GLI3] | 25.8
29 | TQWAPCTPVSGAVRLGYIVNSASTERLALRASSESSSSGTPPKPTPPGTPLSGIPAKRRTLSRSRPPHPQSVAPPTEQPRFGP [PRRT1] | 0.999
30 | LLLLLL [Leu06] | 6.86
31 | YRRIYVLFKQEKVTLPMLSPLHNI [CDH10] | 8.74
32 | WARSTGPDEWIFTTFTRL [CD8B] | 7.72
33 | WPFSWATLQSLPPFGR [ZNRD1] | 6.12
34 | LFD [RBM26] | 1.04
35 | RLAACLRNPAFFRR [MAPK10] | 12.2
36 | LLLPGGEQPTRCRFALRGASYIGTLLSLQNDDTNANDQM [TFB1M] | 5.57
37 | RPRPGPALPPGAPTCNKCSEAGK [CYBA] | 0.134
38 | SLCFV [E2F3] | 2.42
39 | CCCCCCCCCC [Cys10] | 9.58
40 | QESSPPAHQGQDTWLGADAGPDVAEDSRAGRARGGGGGGGGGRRRRSRPLPTTSRRRRGARAEEPGTGDS [C6orf223] | 0.3
41 | YNEK [PJVK] | 0.295
42 | NNNNNNNN [Asn08] | 0.184
43 | RKDNSWKPQQFSIQGIYLRQIEYIL [ARL6] | 6.56
44 | RAPVGKGGGLRGRGWMPRAPKPPFPFVSKGVRSELRKRASECVSLEGLGALWCYHLETCLMPPCLPMEDRLQELGPCGNLACF [MTA2] | 5.52
45 | LSVCHR [DPYS] | 1.17
46 | CVSYSSSMLGIPTAATMILVPERAMLLFQLV [MTMR8] | 23.9
47 | LPHHTPDHQESQGCCFATHQHRFAQKLCPRLGRSYFKKTWFSWSRWLTPVIPALWEAKPDGS [COG7] | 8.59
48 | YDSISP [CBLN4] | 0.384

Row | Substance | median enrichment
49 | SRVSGKKHSCMSICSWNQFL [STYK1] | 11
50 | YGFLGFPSWACLLKA [CSF3R] | 5.35
51 | LPR [ATXN2L] | 0.876
52 | LSRLCTQGPSLATSLPFCLTPGHPSSLPHAQLPESPLCLTSPSTNGTPEGL [CYP11B1] | 2.58
53 | LGNCWLAWHHHTATASHLLCQGGTSSAGACPVLCGRCCVLLNTAGPAITPWAWRSLGVSRCGGGQPGWPHSITGTACLGTRFP [PIGQ] | 5.81
54 | QKGSGPGIHVGGRGRGGRREGRGEIHTVDTLTSWPKSLPQDLPDLHGQASYGGVSISFFLFLFPGLRASWGPRFTNSPTPLKL [AQP1] | 6.27
55 | WALGLKSQLFLSCSV [DIRAS3] | 35.7
56 | APRAPRQRSRDG [Degron KLHDC3] | 10.8
57 | KSYLSLSNGMKLDNFKKLSRTKGERNTCSFSCN [KLHL4] | 5.48
58 | CVWGLAPCSPGPHCSHTLRLGPPSLLWC [TOM1] | 9.33
59 | CGPDCSLHSAHSICSHPPSLTQPPLSGILPQMRSERQ [ABHD6] | 0.625
60 | WAAAARPSGTPASPGGALGQVPSGRTTPGPQGPRPAATLVVAASRSAFGRPLGVAGAARRVQVEVPVPGPQRA [B3GALT6] | 8.24
61 | WKHFLPKVSGLRYTSIQQCIVIKILFQS [OR2L3] | 7.3
62 | QAVNSTFKVI [LMNTD1] | 0.803
63 | WHLTNHSTEHTFIFVSAFVLKLSKYIHLCNRNL [ADGRV1] | 13.2
64 | QSSAQRRGSMC [FAM49A] | 0.176
65 | SSMMHGDFHFHIFPFFCFCFSRNGGNPVYSMPVLSYSSLLLYILLLYQKN [HIVEP2] | 33.7
66 | LSEQVNSRTGAEALPKMK [UVRAG] | 0.405
67 | LDVQDL [ZMPSTE24] | 0.209
68 | GGGGQVTRSGLSFWGCRSTEPLTPVCPRSPNRCGSSSERLSVQAMGQDRKVPELGKPGCNFLLHPAPPEVLRRVFLGIVFCSC [JUP] | 5.66
69 | RPSTKGPPSWCSITSFLKGISFFTTLS [FANCE] | 13.8
70 | SGTVGCVGVGIPLAPASPTLALQLGPRGISVLLSQGRSPAGDGGRGSSILPRVCLGVCEQVCKTPEAEAILPPRSLEGVCAWA [ZSWIM4] | 5.27
71 | SALTHAHAPLTLKRIHNSLEKHPHVCCRTHSSQLRPIPVTTASPPTPVTTASPPTPVTTASPPTALSPRPMSACPRAQDFLTG [SSH3] | 2.09
72 | AAAA [Ala04] | 11.6

Row | Substance | median enrichment
73 | YVPVSPFIAAFPWGRQ [CXCR5] | 6.43 and 2.95
74 | CGSLRTTASLLLTSVATEAERQSDTSTGAPGEMGPA [PEX26] | 0.412
75 | TTTTT [Thr05] | 0.336
76 | RRRRRR [Arg06] | 0.898
77 | GPWDTAFSFARLSACRPGGEPGPANESLVYLGCNSLKVQSFGLQSCPGPGSPGHCCSPRPWALVFLQHHTCCPFSISVCVKGD [MYO1F] | 5.6
78 | RFPSPLLLLLLDGNHSLDHACSL [TUBG2] | 2.18
79 | RTPNTIFAIQPQAMGTAFLPRGPGRPQRLLQARTLVHYTPCLGAEILQQKDAIFFVSFFSIFFSKESIFQYVECVSNAMKLKY [NFYC] | 15.8
80 | CPVPARQKEQCQPHQDRWGFESALIWVCLGAPA [SLC37A3] | 5.61
81 | CGILRWLACWAWGLLTDSMEQGWAVCAHAQHALRGGGGGRGFLMSVQELKVSGVLPRICPTPHDKTELCNKQYQFILAVGFCF [WDR6] | 9.47
82 | SAPPGTPSTPSIFSTKALVVSTLLPNGHTPKWPVGRESWSTCSGMVWWKRG [CLIC1] | 11
83 | GFHSRGCCKQRDCHLELGWQGRAASFDSESSCPSPKPPPTP [SYT6] | 0.961
84 | YDHSGQDHSGHGHGHSHGGHGHSH [S100A9] | 0.275
85 | CYSK [FAM162B] | 0.641
86 | YAQP [MST1] | 0.278
87 | TPAPGLGRELTRTGCSQKAGPSLSPKPLLDLWRSCRLDREAVPLSSPSPSRASPWSFRSSFWGLFQVRRMEEGGQATQHPPTP [FOXN4] | 5.36
88 | LIA [ACAT2] | 1.03
89 | YSPQAD [YAP1] | 0.413
90 | YDGAVTERTQESGTPPGIPSTFSCSWERPGGGAHWEGQDSVPALILPCPDVSCFAQRSFLSTPLIPRLVPREGWRPGHGPSRR [ASIC4] | 4.69
91 | LVW [ZNF160] | 1.8
92 | YKLLKRFICVLLTRFFLFVACFGN [SKIL] | 9.42
93 | KKLRS [CRYGN] | 0.509
94 | YGWWQPGFWPRAPPPD [PHC2] | 2.07
95 | RIQPKCQVRSEGIFH [ABCC4] | 1.49
96 | DDDDD [Asp05] | 0.224

Row | Substance | median enrichment
97 | EEEEEEEE [Glu08] | 0.411
98 | SDYCKPLPLLPCLCLFSPLTYSISQPPPTCLCDLRTVPSRHWDKGRISCSPPESAWCCPLFPLCAYD [PRPF3] | 2.87
99 | LPSESGGKTPPSLCILNH [UGT3A1] | 0.835
100 | LVCPLATDTVGNQTLSWSLLLAHSTSKWI [HIBADH] | 12.8
101 | LCT [DUSP22] | 1.23
102 | WLQTC [RAB39A] | 5.31
103 | LCLI [UBP1] | 3.44
104 | CASALEETTGSPICLEFLLLLLLVCFQISLCFLLCSRKVLQNHREKVHCYKGIPTHWRL [PAQR9] | 25.9
105 | SAGAFVAISL [MSI2] | 3.7
106 | QCMSLV [CCDC6] | 0.689
107 | RPETECQPKESSCKTVIYCEYLHHMGSLMVNIFLQSC [TXK] | 12.5
108 | YGWGRVAASFVPTGGSHNSFDL [ELP5] | 5.96
109 | YDVMLAGSPPLDPDSYG [SH3GL2] | 0.593
110 | YLDHDLVQ [TRAT1] | 0.456
111 | LVTGYVKSFNVVLKSKGLLITDSRIMCS [FEM1B] | 11
112 | YKHESFIHTFRQAREVQQVTAKGGNCSHLPPILPAENPDCIQCPQCSHHFAPKVAEQHIPKCKTIKNCLPPLRKHYS [ZC2HC1C] | 0.72
113 | CCCCCCCC [Cys08] | 8.63
114 | RGAEGPMGEERRALLGKVGFLDPRDKLFRCHNVEESTWGTTVLVQVGLGKCTSLPLTPRQNPHPSLWILGKVPVPGEYPGPQT [IGHMBP2] | 5.61
115 | RQTSQSSQPGLHPPWLPPAHMAPSTGLQPGAREL [HOOK2] | 11.1
116 | LKKNPRKNKS [NME5] | 1.1
